These results are taken from ChEMBL document CHEMBL2073751, “Adenosine triphosphate-dependent transport of estradiol-17beta(beta-D-glucuronide) in membrane vesicles by MDR1 expressed in insect cells” (Hepatology, 1998).

Usually Km stands for the substrate concentration at which the rate is half of its maximum.

This series has as its system C[C@]12CC[C@@H]3c4ccc(O)cc4CC[C@H]3[C@@H]1CC[C@@H]2O[C@@H]1O[C@H](C(=O)O)[C@@H](O)[C@H](O)[C@H]1O. Description: TP_TRANSPORTER: uptake in membrane vesicle from MDR1-expressing Sf9 cells. The series is classed as functional, cell membranes.

On to “ATP-dependent translocase ABCB1 (Homo sapiens)”, for which the Michaelis-Menten constant (Km) is 62 µM.
